Molecular target: the molecule itself
Assay: mass photometry; MntR alone, in the presence of 1 mM Mn2+; single peak; monomers to dimer

B1: manganese transport regulator (MntR) from B. subtilis, wild type (natural protein)
chain: MTTPSMEDYIEQIYMLIEEKGYARVSDIAEALAVHPSSVTKMVQKLDKDEYLIYEKYRGLVLTSKGKKIGKRLVYRHELLEQFLRIIGVDEEKIYNDVEGIEHHLSWNSIDRIGDLVQYFEEDDARKKDLKSIQKKTEHHNQ
notes: MntR, manganese transport regulator, Bacillus subtilis; dimer of 142-residue subunits; the cryo-EM maps show residues 3-142; Expressed from the pSMT3 vector as a His6-SUMO fusion; the tag was cut off with ULP-1; Assayed with 1 mM Mn2+ (two Mn2+ ions per subunit); also called WT MntR; MntR2 (dimer); source: E. coli BL21(DE3)NiCo, purified (TALON, ULP-1 cleavage, Ni-NTA)
- stoichiometry N: 2

From publication PMC11275975, “Structural basis for transcription activation through cooperative recruitment of MntR” (Research Square, 2024)
